Like-named read-outs stand apart in the source and are kept apart here.
B1: 4A8 IgG (antibody, V domains shown)
VH: EVQLVESGAEVKKPGASVKVSCKVSGYTLTELSMHWVRQAPGKGLEWMGGFDPEDGETMYAQKFQGRVTMTEDTSTDTAYMELSSLRSEDTAVYYCATSTAVAGTPDLFDYYYGMDVWGQGTTVTVSS
VL: EIVMTQSPLSSPVTLGQPASISCRSSQSLVHSDGNTYLSWLQQRPGQPPRLLIYKISNRFSGVPDRFSGSGAGTDFTLKISRVEAEDVGVYYCTQATQFPYTFGQGTKVDIK
notes: also called IgG 4A8
B2: mAb 236 (antibody, V domains shown)
VH: QVQLVQSGAEVKKPGASVKVSCKASGGTFTSYGINWVRQAPGQGLEWMGWMNPNSGNTGYAQKFQGRVTMTRDTSTSTVYMELSSLRSEDTAVYYCASRGIQLLPRGMDVWGQGTTVTVSS
VL: not shown
notes: also called IgG 236; Antibody 236

Columns and labels:
[1] = target: T1, SARS-CoV-2 prefusion S ectodomain (Spike trimer), His-tagged (SARS-CoV-2, UniProt P0DTC2 14-1213); test: BLI, His-tagged Spike on Ni-NTA sensor
T1 construct: extracellular domain; also called SARS-CoV-2 Spike; S protein

[2] = target: T2, SARS-CoV-2 receptor binding domain (RBD), wild type, His-tagged (SARS-CoV-2, UniProt P0DTC2 319-541); test: BLI competition on His-tagged RBD, after 1st Ab 236
T2 construct: domain: RBD; also called His-tagged RBD; BEI NR52309

[3] = target: T2, SARS-CoV-2 receptor binding domain …; test: BLI competition on His-tagged RBD, after 1st Ab 80
[4] = target: T2, SARS-CoV-2 receptor binding domain …; test: method and format not given
[5] = target: T3, SARS-CoV-2 RBD mutant L452R (SARS-CoV-2, UniProt P0DTC2 319-541); test: BLI, IgG on mutated RBD compared with WT RBD; negative = decreased
T3 construct: domain: RBD; also called mutated RBD L452R

[6] = target: T2, SARS-CoV-2 receptor binding domain …; test: BLI competition on His-tagged RBD, after 1st Ab 324
[7] = target: T2, SARS-CoV-2 receptor binding domain …; test: BLI competition on His-tagged RBD, after 1st Ab 46
[8] = target: T2, SARS-CoV-2 receptor binding domain …; test: BLI competition on His-tagged RBD, after 1st Ab 82
[9] = target: T2, SARS-CoV-2 receptor binding domain …; test: BLI competition on His-tagged RBD, after 1st Ab 52
[10] = target: T2, SARS-CoV-2 receptor binding domain …; test: BLI competition on His-tagged RBD, after 1st Ab 298
[11] = target: T2, SARS-CoV-2 receptor binding domain …; test: method and format not given; remark: listed apart in the source

Binder	Kd [1]	koff [1]	kon [1]	RBD binding of 2nd Ab after 1st Ab (heat map) [2]	RBD binding of 2nd Ab after 1st Ab (heat map) [3]	Kd [4]	Affinity change vs WT RBD (fold-change) [5]	RBD binding of 2nd Ab after 1st Ab (heat map) [6]	RBD binding of 2nd Ab after 1st Ab (heat map) [7]	RBD binding of 2nd Ab after 1st Ab (heat map) [8]	RBD binding of 2nd Ab after 1st Ab (heat map) [9]	RBD binding of 2nd Ab after 1st Ab (heat map) [10]	Kd [11]
B1	1.42 nM	0.000191 s⁻¹	133000 M⁻¹ s⁻¹										
B2				0.3	0.1	145 nM	-4.1	0.4	1.2	0.2	1	0.2	145 nM

Source: patent US20250002564A1 (HOSPITAL FOR SICK CHILDREN, published 2025)
